Experimental data: patent US20250236679A1 (Chugai, published 2025)

T1: human DLL3 expressed on cells (human DLL3/BaF3) (human, UniProt Q9NYJ7 27-618)
T1 construct: Full-length human DLL3 on the membrane of transformed Ba/F3 cells; The ADCC assays also used NCI-H1184 small-cell lung cancer cells that express DLL3; also called Delta-like 3; NM_016941
T1 sequence: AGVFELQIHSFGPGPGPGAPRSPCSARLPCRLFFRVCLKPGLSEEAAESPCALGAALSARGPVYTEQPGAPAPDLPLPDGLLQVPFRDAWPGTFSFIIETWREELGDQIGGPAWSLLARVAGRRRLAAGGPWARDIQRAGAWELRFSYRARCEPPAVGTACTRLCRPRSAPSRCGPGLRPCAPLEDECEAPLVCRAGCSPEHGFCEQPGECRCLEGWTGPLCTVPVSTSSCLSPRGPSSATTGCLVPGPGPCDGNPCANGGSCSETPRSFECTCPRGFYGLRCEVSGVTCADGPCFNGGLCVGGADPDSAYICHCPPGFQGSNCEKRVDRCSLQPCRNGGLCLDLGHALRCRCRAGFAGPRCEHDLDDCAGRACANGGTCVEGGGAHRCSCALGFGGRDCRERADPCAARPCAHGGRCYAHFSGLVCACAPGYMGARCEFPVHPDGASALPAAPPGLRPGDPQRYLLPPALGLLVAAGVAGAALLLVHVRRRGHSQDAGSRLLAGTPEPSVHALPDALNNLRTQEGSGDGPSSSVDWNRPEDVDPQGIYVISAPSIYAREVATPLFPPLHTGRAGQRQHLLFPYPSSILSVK

T2: human DLL3-Fc (human)
T2 construct: also called soluble DLL3 protein
T2 chain: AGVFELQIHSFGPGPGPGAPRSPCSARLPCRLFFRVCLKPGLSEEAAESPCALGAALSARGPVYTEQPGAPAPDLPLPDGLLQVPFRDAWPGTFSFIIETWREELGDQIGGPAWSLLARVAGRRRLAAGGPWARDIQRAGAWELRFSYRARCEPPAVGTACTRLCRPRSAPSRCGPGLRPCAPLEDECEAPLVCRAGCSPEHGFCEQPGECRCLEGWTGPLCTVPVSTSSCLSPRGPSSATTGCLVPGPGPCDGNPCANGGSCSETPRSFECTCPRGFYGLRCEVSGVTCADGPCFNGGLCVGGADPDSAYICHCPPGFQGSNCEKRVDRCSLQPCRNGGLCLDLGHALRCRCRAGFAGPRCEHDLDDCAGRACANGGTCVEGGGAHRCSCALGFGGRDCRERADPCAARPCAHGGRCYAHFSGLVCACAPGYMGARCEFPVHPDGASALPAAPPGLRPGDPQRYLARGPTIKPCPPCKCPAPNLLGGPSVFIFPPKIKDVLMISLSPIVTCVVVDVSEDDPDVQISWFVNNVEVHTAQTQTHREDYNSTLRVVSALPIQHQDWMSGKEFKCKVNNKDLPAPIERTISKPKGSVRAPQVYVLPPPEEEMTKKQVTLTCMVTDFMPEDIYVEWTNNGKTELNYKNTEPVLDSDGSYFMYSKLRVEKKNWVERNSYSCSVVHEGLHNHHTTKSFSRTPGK

B1: DL309 human chimeric antibody (antibody, human IgG1, kappa)
heavy: not shown
light: DIVMTQSQKFMSTSVGDRVSVTCKASQNVGTNVAWYQQKPGQSPKALIYSASYRYSGVPDRFTGSGSGTDFTLTISNVQSEDLAEYFCQQYNNYPLTFGAGTKLELKRTVAAPSVFIFPPSDEQLKSGTASVVCLLNNFYPREAKVQWKVDNALQSGNSQESVTEQDSKDSTYSLSSTLTLSKADYEKHKVYACEVTHQGLSSPVTKSFNRGEC
notes: Mouse variable regions with human IgG1 constant regions; also called chimeric antibody DL309; DL309 chimeric antibody
B2: DL312 human chimeric antibody (antibody, human IgG1, kappa)
heavy: not shown
light: DIQMTQSPSSLSASLGERVSLTCRASQEISDYLSWLQQKPDGTIKRLIFAASTLDSGVPKRFSGSRSGSDFSLSISSLESEDFADYYCLQYASYPYTFGSGTKLEIKRTVAAPSVFIFPPSDEQLKSGTASVVCLLNNFYPREAKVQWKVDNALQSGNSQESVTEQDSKDSTYSLSSTLTLSKADYEKHKVYACEVTHQGLSSPVTKSFNRGEC
notes: Mouse variable regions with human IgG1 constant regions; also called chimeric antibody DL312; DL312 chimeric antibody
B3: DL301 human chimeric antibody (antibody, human IgG1, kappa)
heavy: not shown
light: DIKMTQSPSSMYASLGERVTITCKASQDINSYLIWFQQKPGKSPKTLIYRTNRLVDGVPSRFSGSGSGQDYSLTISSLEYGDMGIYYCLQYDEFPFTFGSGTKLEIKRTVAAPSVFIFPPSDEQLKSGTASVVCLLNNFYPREAKVQWKVDNALQSGNSQESVTEQDSKDSTYSLSSTLTLSKADYEKHKVYACEVTHQGLSSPVTKSFNRGEC
notes: Mouse variable regions with human IgG1 constant regions; also called chimeric antibody DL301; DL301 chimeric antibody

Biological target: T1, human DLL3 expressed on cells (human …)
Assay: flow cytometry on human DLL3/BaF3 cells, chimeric antibody 1 µg/ml
Procedure: The chimeric antibody in the culture supernatant of COS-7 was confirmed to bind to the human DLL3 protein by flow cytometry and ELISA. The chimeric antibody concentration in the culture supernatant of COS-7 was calculated by sandwich ELISA. In this concentration calculation, a human chimeric antibody known for its concentration was used as a standard. The chimeric antibody (final concentration: 1 μg/ml) was added to human DLL3/BaF3 cells suspended in a FACS buffer (PBS containing 1% fetal bovine serum). After incubation at 4° C. for 30 minutes and washing, the cells were reacted with FITC-labeled anti-human antibodies (Beckman Coulter, Inc.), and the binding of the chimeric antibody was analyzed using a flow cytometer FACSCalibur. […] None of the chimeric antibodies bound to Ba/F3 cells, which were a parental line of the forced expressing cells. Human DLL3-Fc was immobilized on a Nunc immunoplate, and the binding of each chimeric antibody to the immobilized protein was analyzed. For detecting antigen-bound chimeric antibodies, the chimeric antibody was added thereto, and alkaline phosphatase-labeled anti-human antibodies (Biosource, AHI0305) and an alkaline phosphatase substrate Sigma 104 were then added in this order. The absorbance was determined. The DL301, DL309, and DL312 chimeric antibodies bound to human DLL3-Fc in a dose-dependent manner (FIG. 8(a)).
COS-7 cells were transfected with the DL306 chimeric antibody expression vector and allowed to transiently express the chimeric antibody. The chimeric antibody in the culture supernatant of COS-7 was confirmed to bind to the human DLL3 protein by flow cytometry. The chimeric antibody concentration in the culture supernatant of COS-7 was calculated by sandwich ELISA. In this concentration calculation, a human chimeric antibody known for its concentration was used as a standard. […] After incubation at 4° C. for 30 minutes and washing, the cells were reacted with FITC-labeled anti-human antibodies (Beckman Coulter, Inc.), and the binding of the chimeric antibody was analyzed using a flow cytometer FACSCalibur.

binding result | Binder
binds | B1
binds | B2
binds | B3

Biological target: T2, human DLL3-Fc
Assay: ELISA, immobilized human DLL3-Fc
Procedure: The competition of a chimeric antibody and a mouse antibody for binding to the antigen molecule was analyzed by ELISA (FIG. 8 (b)). Human DLL3-Fc was added at 10 ng/well to a Nunc immunoplate and immobilized thereon. A mixture (final concentration: 50 ng/ml) of the chimeric antibody and the appropriately diluted mouse antibody was added to the DLL3-Fc protein-immobilized plate. The plate was incubated at room temperature for 1 hour and then washed. Alkaline phosphatase-labeled anti-human antibodies were added thereto and incubated. After the incubation, Sigma 104 was added thereto, and the absorbance was measured. The binding of the chimeric antibody to the antigen molecule competed with that of the original mouse monoclonal antibody thereto.

binding result | Binder
binds | B1
binds | B2
binds | B3
